Test results taken from patent publication US8017152B2, “Cores and microcapsules suitable for parenteral administration as well as process for their manufacture” (Stratosphere Pharma AB, priority 2005, dated 2011).

Assay: Protein integrity of encapsulated hGH by size exclusion HPLC (SEC-HPLC): dimer, polymer and aggregate forms
Type: physicochemical
Conditions: before encapsulation
Experimental: Three batches of maltodextrin microspheres were prepared (50% W/W, 1 ml, 1 ml and 1.8 ml, respectively, in sodium acetate, 10 mM, pH 6.4, 2 mM zinc acetate) in which the GH was suspended manually. The compositions were transferred to Miglyol 829 (10, 20 and 30 ml, respectively), W/O emulsions were created by homogenization (Turrax) and left under refrigeration over night (about 16 hours), then centrifuged (Sorvall SS34, 7000 rpm, 10 min) and washed three times with cold acetone (about 30 g, centrifugation 5 min), allowed to air dry and sieved. The batches were sieved and then pooled. […] The protein quality was determined after centrifugation using HPLC size exlusion chromatography (SEC-HPLC, TSK2000 SWxl, Tosoh Corporation) according to Reslow et al. (supra). […] The fractions were pooled to provide about 0.57 g of cores.
The core loading was about 75% on the pooled batches. Protein integrity was determined after suspending the cores in a buffer (50 mM HEPES, 10 mM EDTA, pH 7.3). After gentle mixing for about one hour the cores had dissolved.
Free flowing single core microcapsules were obtained as evaluated by light microscopy. Protein integrity was determined essentially according to Reslow et al. (supra), including removal of the PLGA coating with a mixture of methylene chloride and acetone.

## Human growth hormone [hGH]
  dimer content of hGH starting material / before immobilisation: approximately 2.4%
Listed as GH
  dimer content of hGH starting material / before immobilisation: about 2.4%
